Measured values as given in doi:10.1101/2021.09.14.460262 (bioRxiv, 2021).

Tests used:
[1] = molecular target: mVDAC1 labelled with Alexa Fluor 532 C5-maleimide (UniProt Q60932); test: MST
[2] = molecular target: mVDAC1 labelled with Alexa Fluor 532 C5-maleimide (UniProt Q60932 14-296, Alexa Fluor 532 C5-maleimide label); test: MST
mVDAC1 labelled with Alexa Fluor 532 C5-maleimide (UniProt Q60932 14-296, Alexa Fluor 532 C5-maleimide label), sequence (Q60932 14-296): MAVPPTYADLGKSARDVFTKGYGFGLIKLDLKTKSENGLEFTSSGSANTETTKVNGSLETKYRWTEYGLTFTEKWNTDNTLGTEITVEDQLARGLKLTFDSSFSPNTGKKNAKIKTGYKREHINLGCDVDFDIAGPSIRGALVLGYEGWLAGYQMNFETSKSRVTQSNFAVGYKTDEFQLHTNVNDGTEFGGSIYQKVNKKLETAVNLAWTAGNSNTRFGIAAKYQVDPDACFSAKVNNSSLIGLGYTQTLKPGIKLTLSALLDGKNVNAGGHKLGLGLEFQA

mVDAC1 labelled with Alexa Fluor 532 C5-maleimide (UniProt Q60932), sequence (Q60932 14-296): as above

Molecule: caspase 8-cleaved recombinant BID (His-rtBID) (domain or fragment)
- Kd [1]: 37.1 µM

B1: recombinant full length His6-BID (natural protein, UniProt P70444 1-195, looked up)
chain: MDSEVSNGSGLGAEHITDLLVFGFLQSSGCTRQELEVLGRELPVQAYWEADLEDELQTDGSQASRSFNQGRIEPDSESQEEIIHNIARHLAQIGDEMDHNIQPTLVRQLAAQFMNGSLSEEDKRNCLAKALDEVKTAFPRDMENDKAMLIMTMLLAKKVASHAPSLLRDVFHTTVNFINQNLFSYVRNLVRNEMD
- Kd [2]: 1420 µM
